Consider one substance from patent US20100249184A1, “INDUCTION AND/OR MAINTENANCE OF TUMOR DORMANCY BY DISRUPTION OF UROKINASE PLASMINOGEN ACTIVATOR RECEPTOR-INTEGRIN INTERACTION” (MOUNT SINAI SCHOOL OF MEDICINE, priority 2007, published 2010).

Entries after “also recorded” stand apart in the source; their conditions may differ.

This test concerns the target T1, purified α3β1-integrin (Homo sapiens, UniProt P05556+P26006).
T1 construct: purchased Chemicon International (Temecula, Calif.)
The test can be described thus: Solid phase dot-ELISA with α3β1-integrin. It is filed as binding. Conditions: α3β1-integrin 750 ng/ml, increasing concentrations of immobilized suPAR or peptide. As for the experimental part: FIGS. 1A-H show the interaction between α5β1-integrin and immobilized uPAR and uPAR-derived synthetic peptides through solid-phase dot-ELISA. […] Bound integrin was detected with anti-α5 integrin antibody followed by goat anti-rabbit IgG (H+L) HRP conjugated secondary antibody and developed with enhanced chemiluminescence (“ECL”). FIG. 1B is a graph showing that binding of integrin to suPAR is saturable. SuPAR (1.5 μg) was immobilized on nitrocellulose membrane in triplicates, incubated with 0, 0.1, 0.5, 1, 2, and 4 μg/ml of α5β1-integrin and tested for integrin binding as in FIG. 1A. The dots were scanned with NIH Image. Mean and SE are shown. […] Peptides representing regions located in each of the three uPAR-domains were immobilized, incubated with α5β1-integrin, and analyzed as in FIG. 1A. Only peptide 240-248 binds α5β1-integrin. FIG. 1D is a graph showing that peptide 240-248 inhibits integrin binding to suPAR. The α5β1-integrin (750 ng/ml) was pre-incubated for 15 min at room temperature with 100 fold molar excess of 240-248 or 17-24 peptides, or with no peptide (Control) and the mixtures were applied to immobilized suPAR (1.5 μg), 2 dots per mixture, and developed as in FIG. 1A. […] Bound integrins were detected with the appropriate previously titrated antibodies followed by goat anti-rabbit IgG (H+L) HRP conjugated secondary antibody and detection with ECL. […]
For orientation: In an ELISA, binding on a coated surface is turned into a signal by an enzyme label.

T1 sequence (P26006 33-872 limits assumed): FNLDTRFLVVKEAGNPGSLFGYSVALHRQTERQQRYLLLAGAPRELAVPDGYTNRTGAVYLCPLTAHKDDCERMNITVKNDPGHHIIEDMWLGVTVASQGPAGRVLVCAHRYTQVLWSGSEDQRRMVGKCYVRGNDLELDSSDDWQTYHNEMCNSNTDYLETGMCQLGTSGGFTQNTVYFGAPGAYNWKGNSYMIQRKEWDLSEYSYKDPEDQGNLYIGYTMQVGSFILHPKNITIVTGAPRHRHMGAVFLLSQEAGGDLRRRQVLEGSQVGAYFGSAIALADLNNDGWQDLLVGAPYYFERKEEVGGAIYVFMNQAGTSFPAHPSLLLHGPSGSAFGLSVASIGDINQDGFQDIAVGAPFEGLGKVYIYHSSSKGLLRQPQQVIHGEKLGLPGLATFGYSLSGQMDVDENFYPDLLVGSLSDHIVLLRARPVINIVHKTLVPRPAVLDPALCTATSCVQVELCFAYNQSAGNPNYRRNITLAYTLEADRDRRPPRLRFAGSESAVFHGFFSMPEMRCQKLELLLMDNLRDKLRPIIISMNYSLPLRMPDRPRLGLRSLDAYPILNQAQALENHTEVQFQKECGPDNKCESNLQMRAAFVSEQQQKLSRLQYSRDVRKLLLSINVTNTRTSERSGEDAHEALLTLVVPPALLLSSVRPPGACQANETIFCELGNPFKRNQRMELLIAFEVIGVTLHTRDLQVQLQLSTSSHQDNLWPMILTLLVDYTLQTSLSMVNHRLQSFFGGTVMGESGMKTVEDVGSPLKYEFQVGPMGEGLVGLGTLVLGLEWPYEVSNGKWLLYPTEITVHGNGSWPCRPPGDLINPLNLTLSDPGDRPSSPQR
T1 sequence (P26006 873-1051 limits assumed): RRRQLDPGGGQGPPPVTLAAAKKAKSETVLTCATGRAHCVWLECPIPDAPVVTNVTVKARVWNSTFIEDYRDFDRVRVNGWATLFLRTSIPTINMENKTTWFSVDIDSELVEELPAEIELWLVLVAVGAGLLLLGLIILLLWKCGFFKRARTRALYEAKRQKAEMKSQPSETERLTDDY
T1 sequence (P05556 21-798): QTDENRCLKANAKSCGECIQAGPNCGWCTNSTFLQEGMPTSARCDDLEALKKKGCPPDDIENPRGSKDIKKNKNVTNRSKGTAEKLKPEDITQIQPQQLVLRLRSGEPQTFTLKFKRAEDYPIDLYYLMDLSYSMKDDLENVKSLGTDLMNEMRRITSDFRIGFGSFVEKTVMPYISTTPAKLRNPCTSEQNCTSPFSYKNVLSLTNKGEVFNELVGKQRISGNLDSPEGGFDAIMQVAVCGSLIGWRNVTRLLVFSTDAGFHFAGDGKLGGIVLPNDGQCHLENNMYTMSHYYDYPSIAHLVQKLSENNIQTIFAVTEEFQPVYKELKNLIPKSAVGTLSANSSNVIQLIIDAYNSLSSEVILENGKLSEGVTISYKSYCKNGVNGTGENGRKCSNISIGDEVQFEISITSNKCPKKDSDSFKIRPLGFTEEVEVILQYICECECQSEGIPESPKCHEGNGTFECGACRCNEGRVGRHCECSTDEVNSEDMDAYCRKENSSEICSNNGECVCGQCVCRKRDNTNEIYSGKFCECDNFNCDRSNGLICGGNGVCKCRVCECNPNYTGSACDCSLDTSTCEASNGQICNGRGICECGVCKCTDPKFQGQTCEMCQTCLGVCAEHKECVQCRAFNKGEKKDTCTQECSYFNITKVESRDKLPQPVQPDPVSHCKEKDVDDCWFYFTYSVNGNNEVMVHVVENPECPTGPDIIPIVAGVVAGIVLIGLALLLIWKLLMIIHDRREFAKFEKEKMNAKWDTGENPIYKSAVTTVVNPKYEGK

Take “peptide 240-248: synthetic uPAR-derived peptide, domain III residues 240-248: GCATASMCQ (SEQ ID NO:9)”: the “α3β1-integrin binding compared to α5β1-integrin” value was “dots of much lesser intensity; also recorded: bound only weakly”.
